Data: doi:10.1101/2021.01.08.425872
Where two headings read alike, the source gives them in different places.

Assays:
[1] = target: taxol-stabilized microtubules (porcine brain tubulin) (porcine) (UniProt P02550); experiment: co-sedimentation
[2] = target: taxol-stabilized microtubules (porcine brain tubulin) (porcine) (UniProt P02550); experiment: co-sedimentation; remark: listed apart in the source

“ICR2-His6 (from UniProt Q9ZQC5 56-583) (natural protein)” gave a stoichiometry N (mol per mol of tubulin) [1] of 0.85.

B1: ICR1-His6 (natural protein)
chain: MPRPRVSELSQRQAPRLRSSSSTSDSNHSNRLITTDQSFKPGVDRKSPRSGGPNSDPLGQKKLGGRISDLESQLGQAQEELRLLKEQLANAEAVKKQAQDELHKKSKKPNPLARVEESATEAERIDRDEIPGDVQKETDVFEVPVEKIAVEEEELRSGNDEAEKLVAKEDEIKMLKARLYDMEKEHESLGKENESLKNQLSDSASEISNVKANEDEMVSKVSRIGEELEESRAKTAHLKEKLESMEEAKDALEAEMKKLRVQTEQWRKAADAAAAVLSGEFEMNGRDRSGSTEKYYAGGFFDPSAGFMDPPGMADDYDDGLGSGKRKSSGMKMFGELWRKKGQK
B1 was tested, and the stoichiometry N (mol per mol of tubulin) [1] was 0.4 and the stoichiometry N (mol per mol of tubulin) [2] was 0.35.
